Publication doi:10.1101/2020.06.07.137802 (bioRxiv, 2020)
*: point of attachment. Biotin = O=C1N[C@H]2[C@H](CS[C@H]2CCCCC(=O)*)N1; Ahx = NCCCCCC(=O)O

Target: T1, recombinant, soluble extracellular b1b2 domain of human NRP1, wild type (residues 274-584) (human, UniProt O14786 274-584)
T1 sequence: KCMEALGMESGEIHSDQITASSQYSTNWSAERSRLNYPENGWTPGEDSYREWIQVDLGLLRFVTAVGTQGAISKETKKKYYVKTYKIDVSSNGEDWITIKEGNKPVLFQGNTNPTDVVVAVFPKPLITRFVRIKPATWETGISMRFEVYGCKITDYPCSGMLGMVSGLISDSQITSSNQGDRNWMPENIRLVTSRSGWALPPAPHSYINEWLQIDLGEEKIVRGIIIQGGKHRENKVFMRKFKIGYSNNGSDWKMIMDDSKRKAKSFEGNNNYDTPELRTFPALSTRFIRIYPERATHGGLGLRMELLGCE

{Biotin-Ahx}-RPARPAR-OH (also: on silver nanoparticles) [biotin-Ahx-RPARPAR-OH, prototypic NRP1-binding CendR peptide, on silver nanoparticles (AgNP-CendR)]
binding result: binds
